pIC50: −log10 of the molar value.
Legend:
[1] = target: soluble human BLyS (human) (UniProt Q9Y275); assay: DELFIA competition, Eu-hBLyS binding to coated BR3
[2] = target: soluble mouse BLyS (mouse) (UniProt Q9WU72); assay: DELFIA competition, Eu-mBLyS binding to coated BR3
[3] = target: soluble human BLyS (human) (UniProt Q9Y275); assay: DELFIA competition, Eu-hBLyS binding to coated BCMA
[4] = target: soluble human BLyS (human) (UniProt Q9Y275); assay: DELFIA competition, Eu-hBLyS binding to coated TACI
[5] = target: soluble mouse BLyS (mouse) (UniProt Q9WU72); assay: DELFIA competition, Eu-mBLyS binding to coated BCMA
[6] = target: soluble mouse BLyS (mouse) (UniProt Q9WU72); assay: DELFIA competition, Eu-mBLyS binding to coated TACI

Substance	pIC50 [1]	pIC50 [2]	pIC50 [3]	pIC50 [4]	pIC50 [5]	pIC50 [6]
AMG623	11.03	9.83	> 12.52	> 12.52	10.94	> 12.52
TACI-Ig (Fc fusion)	9.80	9.29	9.95	10.89	9.11	10.80

— patent publication US20170101466A1
